{
  "source": "patent US20200148768A1",
  "about": "(STCUBE, published 2020)",
  "binders": {"B1": {"name": "STC810 (antibody, V domains shown)", "VH": "EVQLQQSGPELVKPGASVKISCKASGYTFTHYNMDWVKQSHGKSLEWIGYIYPSNGGTGYNQKFKSRATLTVDKSSSTAYMELHSLTSEDSAVYYCARGAYHYGSSYAYWYFDVWGAGTTVTVSS", "VL": "DIQMTQTTSSLSASLGDRVTISCSASQDISNYLNWYQQKPDETVKLLISYTSSLHSGVPSRFSGSGSGTDYSLTISNLAPEDIATYYCQQSSKLPFTFGSGTELEIKR", "notes": "mouse monoclonal; kappa; also called mouse monoclonal anti-human BTN1A1 antibody STC810"}},
  "key": {"human BTN1A1-ECD-Fc [1]": {"molecular_target": "T1, human BTN1A1-ECD-Fc (human, N-glycosylated (PNGase F sensitive))", "T1 construct": "also called BTN1A1-Fc; hBTN1A1-Fc", "experiment": "SPR (Biacore), antibody on mIgG capture chip, BTN1A1-ECD-Fc 2-64 nM", "description": "(§1) An mIgG capture chip (BIAcore™) was coated with antibody with 600 response units (RU) and BTN1A1-ECD was injected into the microfluidic channel. KD values were obtained using fitting tools of the BIAevaluation software (BIAcore). FIGS. 22A-F provide sensograms showing real-time binding of dimeric BTN1A1-ECD-Fc (2-64 nM with 2-fold dilution; FIGS. 22A, C, and E) or of monomeric BTN1A1-ECD-His (2-64 nM with 2-fold dilution; FIGS. 22B, D, and F) to STC703, STC810, or STC820 immobilized on an mIgG capture CMS chip. Flow cells without any immobilized protein were used as the controls for non-specific binding and control cell signals were subtracted from test cell signals to produce the sensograms shown in FIGS. 22A-F.\n(§2) The KD values for BTN1A1-ECD-Fc or BTN1A1-ECD-His binding to STC703, STC810, and STC820 as measured by Biacore assays are provided in Table 17 below."}, "human BTN1A1-ECD-Fc [2]": {"molecular_target": "T1, human BTN1A1-ECD-Fc", "experiment": "SPR (Biacore)", "description": "as §1, §2"}, "[3]": {"molecular_target": "T2, human BTN1A1 wild type, expressed on cells (human, UniProt Q13410 27-526, glycosylated at N55 and N215 (extracellular))", "T2 construct": "also as whole-cell lysate in western blots; also called BTN1A1 WT", "T2 sequence": "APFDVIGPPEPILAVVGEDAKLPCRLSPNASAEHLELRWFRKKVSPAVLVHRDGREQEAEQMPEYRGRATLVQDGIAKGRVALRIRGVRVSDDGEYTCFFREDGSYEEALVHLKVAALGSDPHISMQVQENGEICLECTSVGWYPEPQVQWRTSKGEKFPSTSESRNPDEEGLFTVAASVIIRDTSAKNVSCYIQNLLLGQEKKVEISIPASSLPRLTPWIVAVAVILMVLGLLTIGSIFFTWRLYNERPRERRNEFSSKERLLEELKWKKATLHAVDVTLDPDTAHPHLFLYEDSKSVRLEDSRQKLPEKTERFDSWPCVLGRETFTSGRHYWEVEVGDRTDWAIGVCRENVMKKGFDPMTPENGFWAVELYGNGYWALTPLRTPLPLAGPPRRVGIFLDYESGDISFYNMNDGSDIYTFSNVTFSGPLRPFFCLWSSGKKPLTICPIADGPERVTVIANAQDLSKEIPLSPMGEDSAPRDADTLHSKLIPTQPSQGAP", "experiment": "FACS, 293T BTN1A1 WT against 2NQ", "description": "The glyco-specificity of monoclonal anti-BTN1A1 antibodies was characterized by dot blot analysis. Each anti-BTN1A1 mAb (0.5 μg/well loaded) was tested for binding to glycosylated BTN1A1 (PNGaseF “−”) or deglycosylated BTN1A1 (PNGaseF “+”). Non-specific antibody controls (“IgG,” 0.25 μg/well loaded) was also included in the assay. As shown in FIGS. 19A-19B, both glycosylated BTN1A1 protein and non-glycosylated BTN1A1 (BTN1A1 protein treated with PNGase F) were coated on the solid phase and tested for mAb and antigen binding affinity. […] The glyco-specificity of monoclonal anti-BTN1A1 antibodies was also characterized by FACS analysis. […] After further washing, fluorescence intensity (MFI) was measured to assess relative binding of antibodies to membrane-bound glycosylated or unglycosylated BTN1A1. […] See, e.g., FIGS. 21A-C and Table 16."}},
  "data": [
    {"binder": "B1", "values": [
      {"measurement": "Kd", "setting": "human BTN1A1-ECD-Fc [1]", "result": 0.92, "unit": "nM"},
      {"measurement": "fold higher affinity than to monomeric BTN1A1-ECD-His", "setting": "human BTN1A1-ECD-Fc [2]", "result": "> 100", "unit": "fold"},
      {"measurement": "fold MFI on glycosylated over unglycosylated BTN1A1", "setting": "[3]", "result": "≥ 2", "unit": "fold"}
    ]}
  ]
}
